Assay: soluble on expression in E. coli; label from the status in PepcDB or PDB records

| Sequence | soluble on expression in E. coli |
| --- | --- |
| MVALSNALSRVFGSLAGYKFPSFIQKGINALYVKIFKIDLSEFEPLENYRSLNALFTRSLKKERPFDKSPNICIAPCDALITECAFLDNDSALQIKGMPYKAHELVGEINPLSPSFFYANFYLSPKDYHHYHAPCDLEILEARYFAGKLLPVNKPSLHKNNNLFVGNERVTLVAKDIQGNRLYFVAVGALNVGKMRFNFDKNIQTNAKARFTQTYSYNPPIKVKKGDNLGNFEMGSTIVLFIQNTAFKDLKEKNVKFGESIGEFHANLEHHHHHH | soluble |
| MVAPSFPLFNLPQKNLKDVFCNMSVIQQTCISLISEKTRNLVREFHIFKQLQVCLDFIFLPDYHFYLKGSAKFIFIPHNRKFIARSSSGEHSNYSVPQFDAKSWLKHLIYIFNVTEIHSLRSRFFDWDLREPRLKMPKECLKNLKILNLSIGFTNKISLVVELYSAFQHIKKFSLRQYSHKPLDSTLLLELRHLLSKTNQQLCLNINLPLNELLLTSCSSIDIHRTQLTDKDINVFLKHWFAGLKPELEHFRVRKDGPAFNQKTILKGIPHEFASIGRKFKLFEMDSQVGGIDIDLGQDIKATLVFNHKPGIADFSVAVHNSKYFFC | not soluble |
| MVARISVGKNLYGALAYNQNKVDEGGAKVLSAHLLRYPEDGRFRPDESVRQFLEWMPNHYRTEKPVIHISLNPHPDDVLTDGQLAEIGREYMQRLGYGNQPYLVFKHEDIGRHHIHIVSLRVDSEGRKVSDKFEYRRSKEITELLEQKYGLHPAEGRKKGEEWQLKPVDVAKGDIKRQIACTLKPLLELYSFRTMGELRALLSLYNIGVEEVKGEIGGRTYHGILYTALDGNGETAATPIKSSRLGRTAGAQQLDRKMRESAARIKSAPCRERLRPLVADALRQSVDERDFRDRLAKEQIDLVLRRNGTDRIYGVTFIDHRSRTVLNGSRLGKEFSANMLNGHFQEQPPNSLSPLLPPVPSAVASGNGEKIPGGLLSDMEPELNYVPRYPKLLKPDKKKRRRRYGRQD | not soluble |
| MVCQHNDELEALVKKAKKVTDKGEVASYIPALAKADKHDLSVAIYYSNNVCLSAGDVEKTFTLQSISKVLSLALVLMEYGKDKVFSYVGQEPTGDPFNSIIKLETVNPSKPLNPMINAGALVVTSLIRGRTVKERLDYLLSFIRRLTNNQEITYCREVAESEYSTSMINRAMCYYMKQYGIFEDDVEAVMDLYTKQCAIEMNSLDLAKIGSVFALNGRHPETGEQVISKDVARICKTFMVTCGMYNASGEFAIKVGIPAKSGVSGGIMGISPYDFGIGIFGPALDEKGNSIAGVKLLEIMSEMYRLSIFLEHHHHHH | soluble |
| MVDGEGITPKTCSEDIIKDLLNDVKSSEKPFSVDKLAGCDQTDFVGKRPKKHHRHKSKKSKKVRRRSKTWSSSRSRSRSRSRSRGRSQERRRSRKSRKSRSRSRLKHREEKIEKKNLEKAPKNELIPQAPSTENGKPKEFKEPPRKDEADDLPLGADFSTPLVKKETKLAISITTVLPKAENKKEVEDGEIEEIAYGDGDFKEPEGIEKNLENKNICENGNLDNSENEKSKEKDKNRKKEKTERKRKRSHSSSDRRGRRTSKESRRRSRSRDTHRTRRRSPERSRRSTETRNERPERPSRWRSRSRERKEYDSYRRRRSRSREVIDKEKLLAIAKTKRAEMMSNGDRDSASIEDFVTYCKKLQRRQEREKRREAGHDVSDHDSDRETVRYKHPYAMPKEPIRINIVTATSANLAQKAITGPEEPTQLGAAQLRIVFPVSSGAVHKENAEWVPVEKEDVPKSCSVEQKKHVALTSLEIDRCRAQGIPVAPAPVPKFLNSILPPPPAPPQFLPNPTDSFRPPTPPPLPSVLYVPNKDQMILKEPKDIPIPAPSDIGKVLKQRTEAQRKVLSTPNDFDAHRALREANEQISLWAALKSLPGEYTGTTGLRLLTADELQPQNPKYHAWVKKDQFRNAAPATGGIGRLMLEKMGWRPGEGLGKDATGNLEPLMLDVKSDRKGLIAEEEMSIKQRNKINAQNNVPVDLSNKNPISLIMELCAKRRWNPPSFSCEESGADHLKMFVWTIVINDVEYRPMCGSKQKKEGKAVAAQVALQSLGVLPMDPNLPVYM | not soluble |
| MVDIEALQKAIGVTSLSYDEDDDDDDENDAFYSSSHRVSHNYNQPPLPPIPTRDDMSNYSSSRNTPLVRRD | not soluble |
| MVDSDDDGDRRRDKFARERRDEDYRRGGGGFNRYDNKRPGGRRDDYQVKRSRGDDADDSFDPVSRSGNGSDLPTESDSIYSGPLQTFKKFLTSQEDDISEEDAIKKYNEYKTEHRKHQLERFFRAHKDEEWFRLKYKPDDAKKLREAHLENVQKRLQVFNELKEQGQFNKFSLDFGDAEAIIRMLDSVVVKLENGTEDELKAVLAQKLEDESLADIKKDENGNGTEQPKEEPEVKQESGATEELEEGAIEDGTEKSSNKVNIHRTCSVFLRNIPPGLTYEELEGLCKKSPGFLRLALTDGIAERKFYRRGWATFKRDINIKEICWALNAHRLRETDLNAIINRDITRRVRTNNGIASHKQVAINDLKLAVKLTVLYDKKIGLFNAADEADADREMDIRMGVDLVAASTNPLIKEVKSLVPHDVLNDISEEEAELLGVSNGGEAPAEKIRFERDDNILKALDLLIVYLRIVHSIDFYNHGHYAQEDSMPNRCGLIHVRGQPPSGVSITTDEDGALVVPQKFVNDFISGFNSRIEKGLIEKQYVSEEELEKMGKKDGEKEVEAFIQKNTVELAKDKWLCPLSGKKFKGPEFIRKHLQSKHEDKLEEARAEADFFNNYLADAQRPVDCEPKQAPRDDHRGGGGGERGGYGRERDDDRGPGGGGRNSFGGGGYDRRPQFPPRHSLGGRGGGGRYFEDAPRRQPVSYRDLDAPDDIP | not soluble |
| MVEEFKVTPWEVEGVVDYDKLIKHFGTSPLTEDLLEKTAELTKSELPIFFRRKFFFSHRDYDLILKDYEEGRGFFLYTGRGPSGPMHIGHIIPFFATKWLQEKFGVNLYIQITDDEKFLFKENLTFDDTKRWAYDNILDIIAVGFDPDKTFIFQNSEFTKIYEMAIPIAKKINFSMAKAVFGFTEQSKIGMIFFPAIQIAPTFFERKRCLIPAAIDQDPYWRLQRDFAESLGYYKTAALHSKFVPSLTSLSGKMSASKPETAIYLTDSPEDVEKKVWKFTLTGGRPTLKEQREKGGEPEKCVVFKWLEIFFEEDDKKLKERYYACKNGELTCGECKRYLISKIQEFLKEHQRRRKKAEKLVEKFKYTGKLAQEMWNEAIPEPLKRSHHHHHH | soluble |
| MVEIFNEIMQRVKEAETIIIHRHVRPDPDAYGSQLGLKLYLERKFPEKNIYATGEAEPSLSFIGDLDEIDDSVYSDALVIVCDTANAPRIDDQRYLNGQSLIKIDHHPATDQYGDVNFVNTEASSTSEIIFDFISHFNDLSIIDEHVARVLYLGIVGDTGRFLFSNTSPHTMEVASQLLAYPFNHNAELNKMSEKDPKLMPFQGYVLQNFELSDSHEYCQIKITNDVLKQFDIQPNEASQFVNTVADISGLKIWMFGVDEGDQIRCRIRSKGITINDVANQFGGGGHPNASGVSVYSWDEFEELAQALRQKLLEHHHHHH | soluble |
| MVEKPKDIKIAQESFPILVAENIYHCGYHSEKSYGAASYLIQHSQGNILVDSPRFTPPLVKRIEAMGGIKYMYLTHQDDVADHQKFAEHFQCQRILHTDEISAGTRNVEIQLTGLEPFPLQPDVLIIPVPGHTKGHTVLLYKNKFLFTGDHLAWSENRHQLTAFRDVCWYSWAEQIKSMRRLADYSFDWVLPGHGRRFHADVETMRQQMHKCIELMTDERQPLTFNSLEHHHHHH | soluble |
| MVFKSKKDKFSEMLMNVSENLKEGAQFFVEYKIKNASDLKEFSMRMKEYESKGDSFIHEIIMELNKAFITPIEREDILQLAMSMDDVLDGLDHSAGLFEMYSITEADEYMIKFVEAINQCAIEIANSVELMSNKKLVDIRTNAIKIKDYESQCDDIRRHAIKNLFSREKDPIKIIQFKEIYEELEEVADSCQSVANVLETIIMKNALEHHHHHH | soluble |
| MVGGMMESYSKFHTILNELKHSAAQFDRQRGEHHRPLFDEVLFHCHGKLLTPCVEEAHSTLQALIREKESGRLTALRAEYLSERLLAQIAALTRELSTQNVRRNEPKPHAYFKKPINELYQELAQHQDWERRLMDLVRDKALLLEQASATEKAAAQQALLQSEQRLNRCREAKIKIEKRITTQERKA | not soluble |
| MVGIHQEVWLEVDLEFTKKMKIPVVRRDLGGGTVVITPGEHDYFIVVRQEDAPRNPSELYKKFLTPIVNVLRSYGLKADLRDQDIVVNGKKISGNGAMTHGNSIVIAGNILLSLDIDL | soluble |
| MVGIQVQEVMTDKYAKIDISAPLSEAIGIIEKEDPDLILVFDDNVYKGVLTQDLIIRSHLKWDPTKAKVRDIYKPAPVVKPTDDLSHAAKLLLETDLRSLPVGENKAEIIGVISDIALLERVVAEEFGKKKVEEFMTKDVITLTPDDTVAKALAVMRDHGISRIPIVNEEGKLEGLVTLHDLILRFIKPRFKAQTGELVGEKIPPFSMKLREAMIRGVITILPTATVREAVATMKDNDIDGLVVVDEGNKVVGILTVKDLLLPISRMVEKEAKFYLQLGGDASALSDFTRERIINDIKKFVDGYSDLLGNEGIIYLYIRRFNEKFRGVHLYQARMRIVTDKGVFIARGETWGAIQAVHDAIRAIERQLLQKAELERDIRYAKRFIEKLELWR | soluble |
| MVGQREPAPVEEVKPAPEQPAEPQQPVPTVPSVPTIPQQPGPIEHEDQTAPPAPHIRHYDWNGAMQPMVSKMLGADGVTAGSVLLVDSVNNRTNGSLNAAEATETLRNALANNGKFTLVSAQQLSMAKQQLGLSPQDSLGTRSKAIGIARNVGAHYVLYSSASGNVNAPTLQMQLMLVQTGEIIWSGKGAVSQQLEHHHHHH | soluble |
| MVHRLDISSEMIAFFKNCAKNGNYTPFLSNYRGLIRDIGQQLEKVSLPNNSLEKLMVKHFANCFVALHTMNSLDELAASAPKFVADFKQAIGNKKTLKELHDNFKSSDTKQQGLNRKLTNKMERNRSEMKQFKMEMMSSFNGLKQNMDTKMEEMMQLMRALIQDLTSQKLAQNPESSKCSFPNYGLEIQKKFEDMIQNMKSQTGSVFELKLKEIEQLEAEAENTIPKIPKKAAGSSSEH | not soluble |
| MVHYKVSYFPIRGAGEIARQILAYAGQDFEDNRIPKEEWPAVKPSTPFGQLPLLEVDGKVLAQSHAIARYLARQFGINGKCAWEEAQVNSVADQFKDYLNEVRPYFMVKMGFAEGDLDALAKDVFLPGFKKHYGFFANFLKSAGSGYLVGDSLTFVDLLVAQHTADLLAANAALLDEFPQFKAHQEKVHSNANIKKWLETRPVTPF | not soluble |
| MVIGVPKEIKTLENRVALTPGGVESLVRRGHTVLVERGAGEGSGLSDAEYARAGAELVGREEAWGAEMVVKVKEPLPEEYGFLREGLILFTYLHLAADRGLTEAMLRSGVTGIAYETVQLPDGTLPLLVPMSEVAGRMAPQVGAQFLEKPKGGRGVLLGGVPGVAPASVVILGGGTVGTNAAKIALGMGAQVTILDVNHKRLQYLDDVFGGRVITLTATEANIKKSVQHADLLIGAVLVPGAKAPKLVTRDMLSLMKEGAVIVDVAVDQGGCVETIRPTTHAEPTYVVDGVVHYGVANMPGAVPRTSTFALTNQTLPYVLKLAEKGLDALLEDAALLKGLNTHKGRLTHPGVAEAFGLPYTPPEEALRG | soluble |
| MVIHIPVRESNYIEKILLPVMVYFIVNVKQNEWIYTILKEKFFYEEQEECHQILHMAHEILKGRRKGVAQDLTRNAFESYIKSSLNNWLCDPLSFSFSSYIRFRLRTYREMVAKLAEVAIDEYKMEQEYQMFIETLRQQVSSRKSRLSCVHLIFDESFIFYDDKGRRLKQEKLVQYIDEELLKQNDVYIDTKVIAPLLSISPKKIYLYTKEQDHNMIITLRNVFQERVQLHGLHDFERNVKNLKNKGNALDFLSFLEHHHHHH | soluble |
| MVIILAMTNREKFKVLADQIKISNQLEQDILEQGELTRIDVSNKNRTWTFQISLPHFLSHEDYLLFTHAIEEEFKEIATVAIDFSIKDTNNQDEFALKYFGHCIDQTRLSPKVKGQLKQKKLIMSGNVLKVLVSNDIERNHFDKACNGSLVKA | not soluble |

— the DeepSol protein solubility set
